target: SARS-CoV-2 RBD结构域 (wild type) (SARS-CoV-2); test: SPR (Biacore), antibody coupled to CM5 chip, viral protein as analyte, 25°C; details: remark: other sources report otherwise

| Binder | Kd |
| --- | --- |
| Cv2.3194 IgG1 (antibody) heavy: EVQLVESGGGLIQPGGSLRLSCAASGITVTSNYMSWVRQAPGKGLEWVSVIYPGGSTFYADSVKGRFTISRDNSKNTLYLQMNSLRAEDTAVYYCARDLVVYGMDVWGQGTTVTVSSASTKGPSVFPLAPSSKSTSGGTAALGCLVKDYFPEPVTVSWNSGALTSGVHTFPAVLQSSGLYSLSSVVTVPSSSLGTQTYICNVNHKPSNTKVDKKVEPKSCDKTHTCPPCPAPELLGGPSVFLFPPKPKDTLMISRTPEVTCVVVDVSHEDPEVKFNWYVDGVEVHNAKTKPREEQYNSTYRVVSVLTVLHQDWLNGKEYKCKVSNKALPAPIEKTISKAKQPREPQVYTLPPSRDELTKNQVSLTCLVKGFYPSDIAVEWESNGQPENNYKTTPPVLDSDGSFFLYSKLTVDKSRWQQGNVFSCSVMHEALHNHYTQKSLSLSPGK light: EIVLTQSPGTLSLSPGERATLSCRASQSVSSSYLAWYQQKPGQAPRLLIYGASSRATGIPGRFSGSGSGTDFTLTISRLEPEDFAIYYCQQGVTFGGGTKVEIKRTVAAPSVFIFPPSDEQLKSGTASVVCLLNNFYPREAKVQWKVDNALQSGNSQESVTEQDSKDSTYSLSSTLTLSKADYEKHKVYACEVTHQGLSSPVTKSFNRGEC | < 1000 nM |
| Cv2.3235 IgG1 (antibody) heavy: EVQLVESGGGLIQPGGSLRLSCAASGFTVSRNYMSWVRQAPGKGLEWVSVIYSGGSTFYADSVKGRFTISRDNSKNTLYLQMNSLRAEDTAVYYCARDGDYYGMDVWGQGTTVTVSSASTKGPSVFPLAPSSKSTSGGTAALGCLVKDYFPEPVTVSWNSGALTSGVHTFPAVLQSSGLYSLSSVVTVPSSSLGTQTYICNVNHKPSNTKVDKKVEPKSCDKTHTCPPCPAPELLGGPSVFLFPPKPKDTLMISRTPEVTCVVVDVSHEDPEVKFNWYVDGVEVHNAKTKPREEQYNSTYRVVSVLTVLHQDWLNGKEYKCKVSNKALPAPIEKTISKAKQPREPQVYTLPPSRDELTKNQVSLTCLVKGFYPSDIAVEWESNGQPENNYKTTPPVLDSDGSFFLYSKLTVDKSRWQQGNVFSCSVMHEALHNHYTQKSLSLSPGK light: DIQMTQSPSFLSASVGDRVTITCRASQGISSFLAWYQQKPGKAPKLLIYGASTLQSGVTSRFSGSGSGTEFTLTISSLQPEDFATYYCQRLDSYPPITFGQGTRLEIKRTVAAPSVFIFPPSDEQLKSGTASVVCLLNNFYPREAKVQWKVDNALQSGNSQESVTEQDSKDSTYSLSSTLTLSKADYEKHKVYACEVTHQGLSSPVTKSFNRGEC | < 1000 nM |
| Cv2.5213 IgG1 (antibody) heavy: EVQLVESGGGLIQPGGSLRLSCAASGFTVSSNYMSWVRQAPGKGLEWVSLIYSGGSTYYADSVKGRFTISRDNSKNTLYLQMNSLRAEDTAVYYCARDLNYYGMDVWGQGATVTVSSASTKGPSVFPLAPSSKSTSGGTAALGCLVKDYFPEPVTVSWNSGALTSGVHTFPAVLQSSGLYSLSSVVTVPSSSLGTQTYICNVNHKPSNTKVDKKVEPKSCDKTHTCPPCPAPELLGGPSVFLFPPKPKDTLMISRTPEVTCVVVDVSHEDPEVKFNWYVDGVEVHNAKTKPREEQYNSTYRVVSVLTVLHQDWLNGKEYKCKVSNKALPAPIEKTISKAKQPREPQVYTLPPSRDELTKNQVSLTCLVKGFYPSDIAVEWESNGQPENNYKTTPPVLDSDGSFFLYSKLTVDKSRWQQGNVFSCSVMHEALHNHYTQKSLSLSPGK light: not shown | < 1000 nM |
| Cv2.1353 IgG1 (antibody) heavy: EVQLVESGGGLVQPGGSLRLSCAASGVTVSSNYMNWVRQAPGKGLEWVSVIYSGGSTFYADSVKGRFIISRDNSKNTLYLQMNSLKTEDTAVYYCARDLGPMGFDIWGQGTMVTVSSASTKGPSVFPLAPSSKSTSGGTAALGCLVKDYFPEPVTVSWNSGALTSGVHTFPAVLQSSGLYSLSSVVTVPSSSLGTQTYICNVNHKPSNTKVDKKVEPKSCDKTHTCPPCPAPELLGGPSVFLFPPKPKDTLMISRTPEVTCVVVDVSHEDPEVKFNWYVDGVEVHNAKTKPREEQYNSTYRVVSVLTVLHQDWLNGKEYKCKVSNKALPAPIEKTISKAKQPREPQVYTLPPSRDELTKNQVSLTCLVKGFYPSDIAVEWESNGQPENNYKTTPPVLDSDGSFFLYSKLTVDKSRWQQGNVFSCSVMHEALHNHYTQKSLSLSPGK light: DIQMTQSPSFLSASVGDRVTITCRASQGISSYLAWYQQKPGKAPKLLIYAASTLQSGVPSRFSGSGSGTEFTLTISSLQPEDFATYYCQQLNSDPPVTFGPGTKVDIKRTVAAPSVFIFPPSDEQLKSGTASVVCLLNNFYPREAKVQWKVDNALQSGNSQESVTEQDSKDSTYSLSSTLTLSKADYEKHKVYACEVTHQGLSSPVTKSFNRGEC | < 1000 nM |
